This is an account of results in publication PMC6745058 (Molecular cell, 2019).

The term Kd denotes the concentration at which binding is half-saturated. A lower Kd goes with a tighter complex.

This assay addresses T1, Rtt107NTD (BRCT1-4 domains of Rtt107, residues 2-513) (S. cerevisiae, UniProt P38850 2-513).
T1 sequence (looked up): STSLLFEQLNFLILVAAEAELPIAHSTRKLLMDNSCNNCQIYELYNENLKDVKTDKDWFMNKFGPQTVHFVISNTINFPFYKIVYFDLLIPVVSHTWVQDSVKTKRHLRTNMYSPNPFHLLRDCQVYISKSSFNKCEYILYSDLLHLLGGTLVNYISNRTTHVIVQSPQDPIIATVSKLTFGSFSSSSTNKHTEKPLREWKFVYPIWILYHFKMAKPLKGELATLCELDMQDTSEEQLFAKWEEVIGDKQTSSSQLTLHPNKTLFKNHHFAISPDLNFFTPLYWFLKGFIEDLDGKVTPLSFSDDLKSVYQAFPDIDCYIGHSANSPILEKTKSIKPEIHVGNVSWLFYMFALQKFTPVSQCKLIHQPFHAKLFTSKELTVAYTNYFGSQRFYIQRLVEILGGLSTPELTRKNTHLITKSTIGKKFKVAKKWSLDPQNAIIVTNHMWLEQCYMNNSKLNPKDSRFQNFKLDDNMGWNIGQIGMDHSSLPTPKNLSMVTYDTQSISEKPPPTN
The assay can be described thus: ITC. A general note: In ITC the heat of successive injections is recorded.

Consider DVDEPNPIVISDSEATDEEISIIYEPEFNENYLWAEE (peptide, UniProt Q06164 2-38, looked up) [Mms22RIM peptide (Mms22 residues 2-38)], for which binding was characterised by a dissociation constant (Kd) of 15 nM.
